Here are results for five molecules from paper PMC4758025, “Critical Assessment of Protein Cross-Linking and Molecular Docking: An Updated Model for the Interaction Between Photosystem II and Psb27” (Frontiers in Plant Science, 2016).

First the molecules themselves.
B1: Im7-tagged C-terminal lumenal domain of D2 (residues 294-352) (domain or fragment)
chain: not shown
notes: D2 (PsbD) of photosystem II, C-terminus, residues 294-352; source: cell-free expression (RTS100 system), purified on the chip
B2: recombinant Psb27 (natural protein, T. elongatus, UniProt Q8DG60 22-134, looked up)
chain: CANVPTGLTGNFREDTLALISSLREAIALPENDPNKKAAQAEARKKLNDFFALYRRDDSLRSLSSFMTMQTALNSLAGHYSSYPNRPLPEKLKARLEQEFKQVELALDREAKS
notes: by the printed primers the natural stretch begins ANVPT and ends REAKS; No lipid modification, as the N-terminal cysteine is missing; the His tag is inferred; source: E. coli Overexpress C43, purified (IMAC, ResourceS ion exchange)
B3: Psb27 in the monomeric Psb27-PSII intermediate complex (natural protein, T. elongatus (endogenous), UniProt Q8DG60 22-134, looked up)
chain: B2 chain
modifications: N-terminal lipid modification
notes: Psb27 of T. elongatus (tll2462), as it stands in the isolated Psb27-PSII complex; source: endogenous, Psb27-PSII complex isolated from wild-type T. elongatus
B4: Im7-tagged lumenal domain of CP43 (residues 293-424) (domain or fragment)
chain: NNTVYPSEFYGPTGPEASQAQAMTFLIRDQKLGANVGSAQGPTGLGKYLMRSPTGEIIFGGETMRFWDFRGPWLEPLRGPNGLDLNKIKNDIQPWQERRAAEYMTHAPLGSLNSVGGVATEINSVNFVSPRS
modifications: Im7 fusion carrier omitted. Printed 293-424 taken as PDB 3ARC numbering, which is UniProt +12: printed K381, K339 and D383 then correspond to entry K369, K327 and D371, and the range spans the …
B5: Im7-tagged mature D1 C-terminus (mD1, residues 295-344) (domain or fragment)
chain: not shown
notes: D1 (PsbA) of photosystem II, mature C-terminus, residues 295-344; source: cell-free expression (RTS100 system), purified on the chip

Conditions in all cases: both partners purified
The target in the assay “recombinant Psb27” is B2. The experiment in a line: SPR; Biacore 3000, CM5 chip; Im7 fusion proteins captured on covalently bound DNase E7; Psb27 injected from 50 μM to 100 nM for 60 s in MBS-EP (20 mM MES, 150 mM NaCl, 3 mM EDTA, 0.05% Surfactant P20, pH 6.5), 30 μl/min, 298 K; steady-state responses fitted to a one-site binding isotherm.
Assay [1] has as its target T1, Im7-tagged lumenal domain of CP47 (residues 271-446) (UniProt Q8DIQ1 271-446).
T1 construct: CP47 (PsbB) of photosystem II, lumenal domain, residues 271-446; also called CP47 domain; source: cell-free expression (RTS100 system), purified on the chip
The description is as above.

The target in assay [2] is T2, CP43 in the monomeric Psb27-PSII intermediate complex (T. elongatus (endogenous), UniProt Q8DIF8 1-461).
T2 construct: CP43 (PsbC) of photosystem II of T. elongatus; source: endogenous, Psb27-PSII complex isolated from wild-type T. elongatus
The experiment in a line: cross-linking; isolated monomeric Psb27-PSII complex without PsbO, PsbU and PsbV (2.4 μM) with a 1:1 mixture of BS3-H12/D12 (5 mM), 30 min on ice, 20 mM MES/NaOH, 10 mM CaCl2, 0.03% dodecyl-β-D-maltoside, pH 6.5; trypsin, LC-ESI-MS/MS, StavroX; found in light and heavy form.

T1 sequence (Q8DIQ1 271-446): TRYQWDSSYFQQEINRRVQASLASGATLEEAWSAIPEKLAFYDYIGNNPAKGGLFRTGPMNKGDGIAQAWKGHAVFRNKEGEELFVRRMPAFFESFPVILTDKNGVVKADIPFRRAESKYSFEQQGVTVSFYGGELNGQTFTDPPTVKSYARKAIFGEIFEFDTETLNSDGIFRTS

Take B1: in the assay with recombinant Psb27, the Kd (usually the constant that tells how readily two partners part at equilibrium) was around 100 µM.

On to B2, for which the Kd in assay [1] was around 100 µM.

For B3, in assay [2], the binding result is on record as “binds”.

On to B4, for which the dissociation constant Kd with recombinant Psb27 is 21 µM.

As to B5, in the assay with recombinant Psb27, the Kd was 34 µM.
